Non-standard residues stand in square brackets, D forms with d.
Target: β-amyloid peptide βAP1-42
Assay: cell-based or functional assay

β-amyloid peptide βAP1-42, sequence (peptide, as listed by the source): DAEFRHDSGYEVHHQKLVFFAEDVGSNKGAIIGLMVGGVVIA

decrease in aggregation rate of βAP1-42, light scattering at 500 nm, DP16 at 1:1 molar ratio: ~50%
Binder: H-[dT][dP][dI][dR][dT][dP][dA][dP][dA]-OH [decoy peptide DP16 (+NH3.T.P.I.R+.T.P.A.P.A.COO-)]

Reference: patent publication US6942963 (MIT, dated 2005)
